Experimental data published in patent US20220064335A1 (CRISPR THERAPEUTICS, published 2022).

How the values were obtained:
[1] = molecular target: T1, anti-CD19 CAR (SEQ ID NO: 8) on CAR T cells; assay: flow cytometry, % CAR positive cells against antibody dilution on anti-CD19 CAR T cells
T1 construct: also called anti-CD19 CAR T cells
Protocol: (§1) The purified 15C04-02F03 antibody was analyzed by flow cytometry for binding to CAR T cells expressing the anti-BCMA CAR of SEQ ID NO: 6 (anti-BCMA CAR T cells). CAR T cells expressing an anti-CD70 CAR of SEQ ID NO: 7 (anti-CD70 CAR T cells) or an anti-CD19 CAR SEQ ID NO: 8 (anti-CD19 CAR T cells) were used as negative controls. Anti-BCMA-scFv antibody (15C04-02F03) was analyzed at various dilutions (FIG. 2).

[2] = molecular target: T2, anti-CD70 CAR (SEQ ID NO: 7) on CAR T cells; assay: flow cytometry, % CAR positive cells against antibody dilution on anti-CD70 CAR T cells
T2 construct: also called anti-CD70 CAR T cells
Protocol: as §1

T2 sequence (chain, as listed by the source limits assumed): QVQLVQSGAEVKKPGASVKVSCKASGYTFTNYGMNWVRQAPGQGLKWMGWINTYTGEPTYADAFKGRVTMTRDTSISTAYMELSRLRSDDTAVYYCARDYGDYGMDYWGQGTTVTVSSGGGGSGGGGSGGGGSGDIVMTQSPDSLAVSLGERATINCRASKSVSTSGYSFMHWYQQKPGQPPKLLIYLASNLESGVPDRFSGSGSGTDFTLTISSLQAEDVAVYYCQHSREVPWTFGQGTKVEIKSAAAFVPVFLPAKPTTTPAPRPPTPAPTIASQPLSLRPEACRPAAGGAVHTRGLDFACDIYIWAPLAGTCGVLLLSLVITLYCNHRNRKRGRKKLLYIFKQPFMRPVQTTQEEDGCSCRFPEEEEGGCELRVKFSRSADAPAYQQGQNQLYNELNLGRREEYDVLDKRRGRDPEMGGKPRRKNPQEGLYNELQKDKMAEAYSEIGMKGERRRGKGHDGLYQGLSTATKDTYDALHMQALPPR

B1: mouse anti-BCMA-scFv monoclonal antibody 15C04-02F03 (antibody, mouse IgG1, kappa, V domains shown)
VH: QVQLQQPGAELVKPGTSVKLSCKASAYTFTNYWIHWVKQRPGQGLEWIGRIDPNSGDTKYNEKFKSKASLTVDKPSSTANMQLSSLTSEDSAVYYCTRWGDLHYYAMDYWGQGTSVTVSS
VL: DIVLTQSPASLAVSLGQRATISCQASESVSFTGTSLMHWYQQKPGQPPKLLIYRASNLDSGVPARFSGSGSESDFTLTIDPVEEDDAAVYYCMQSMEDPYTFGGGTKLEIKR
notes: also called Native 15C04-02F03; anti-BCMA-scFv-AJ-1.3-15C04-02F03
[1]
  binding result: no binding
[2]
  binding result: no binding
